From patent US20250026849A1 (ARCELLX, published 2025)

Key:
CD123 = biological target: T1, CD123 (Homo sapiens (Human), UniProt P26951 19-305, limits assumed); test: ELISA, format not described; parameters: unit not given here
T1 construct: also called CD123-Signal
T1 sequence: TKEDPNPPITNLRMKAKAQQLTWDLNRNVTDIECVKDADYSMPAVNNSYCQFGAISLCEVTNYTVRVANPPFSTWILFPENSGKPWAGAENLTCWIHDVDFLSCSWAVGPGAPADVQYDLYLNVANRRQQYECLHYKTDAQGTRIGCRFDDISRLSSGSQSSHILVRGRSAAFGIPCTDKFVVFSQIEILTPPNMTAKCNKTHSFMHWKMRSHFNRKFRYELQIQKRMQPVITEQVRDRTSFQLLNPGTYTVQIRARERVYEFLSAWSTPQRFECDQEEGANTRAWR

HER2 = biological target: T2, HER2 (human, UniProt P04626 23-652); test: ELISA, format not described; parameters: unit not given here
T2 construct: The ELISA is not described; also called ERBB2; CD340

ELISA_avg (CD123)	ELISA_avg (HER2)	Binder
4.8	–	D domain SEQ ID NO: 757 (designed binder) MGSWYEFENRLGAIGDRLWALGGSEAELAAFEKEIAAFESELQAYKGKGNPEVEWLRDEAAYIRAVLQAYRHN
6.3	–	D domain SEQ ID NO: 758 (designed binder) MGSWYEFEHRLDAIYDRLWALGGSEAELAAFEKEIAAFESELQAYKGKGNPEVEWLREEAAWIRLWLQAYRHN
6	–	D domain SEQ ID NO: 759 (designed binder) MGSWYEFEWRLDAIYDRLGALGGSEAELAAFEKEIAAFESELQAYKGKGNPEVEWLREDAAEIRALLQAYRHN
6.2	–	D domain SEQ ID NO: 760 (designed binder) MGSWVEFENRLEAIENRLWALGGSEAELAAFEKEIAAFESELQAYKGKGNPEVEWLREDAAQIRMMLQAYRHN
6	–	D domain SEQ ID NO: 761 (designed binder) MGSWYEFEERLEAIEDRLWALGGSEAELAAFEKEIAAFESELQAYKGKGNPEVEWLREQAAFIRTMLQAYRHN
6.9	–	D domain SEQ ID NO: 762 (designed binder) MGSWFEFEWRLEAIFDRLYALGGSEAELAAFEKEIAAFESELQAYKGKGNPEVEVLRAEAAEIRLRLQAYRHN
4.5	–	D domain SEQ ID NO: 765 (designed binder) MGSWIEFWDRLEAIEDRLWALGGSEAELAAFEKEIAAFESELQAYKGKGNPEVEELRDEAAWIRDSLQAYRHN
4.9	–	D domain SEQ ID NO: 766 (designed binder) MGSWFEFWDRLDAIEDRLYALGGSEAELAAFEKEIAAFESELQAYKGKGNPEVEELRDEAAWIRGTLQAYRHN
8.9	–	D domain SEQ ID NO: 767 (designed binder) MGSWEEFTDRLWAIEDRLYALGGSEAELAAFEKEIAAFESELQAYKGKGNPEVEWLRDEAAFIRKSLQAYRHN
4.9	–	D domain SEQ ID NO: 768 (designed binder) MGSWVEFVDRLEAIEDRLFALGGSEAELAAFEKEIAAFESELQAYKGKGNPEVEFLRDQAAYIRFMLQAYRHN
4	–	D domain SEQ ID NO: 770 (designed binder) MGSWWEFEMRLEAIEDRLFALGGSEAELAAFEKEIAAFESELQAYKGKGNPEVESLRWEAAFIRDILQAYRHN
3	–	D domain SEQ ID NO: 771 (designed binder) MGSWFEFEIRLEAIEDRLFALGGSEAELAAFEKEIAAFESELQAYKGKGNPEVEFLRDEAAEIRQVLQAYRHN
3	–	D domain SEQ ID NO: 772 (designed binder) MGSWYEFYQRLEAIEDRLFALGGSEAELAAFEKEIAAFESELQAYKGKGNPEVEWLRDEAAEIRVVLQAYRHN
21.8	–	D domain SEQ ID NO: 773 (designed binder) MGSWIEFEDRLEAIEDRLFALGGSEAELAAFEKEIAAFESELQAYKGKGNPEVEWLRQEAAEIRLMLQAYRHN
15	–	D domain SEQ ID NO: 710 (designed binder) MGSWGEFWARLEAIWIRLDALGGSEAELAAFEKEIAAFESELQAYKGKGNPEVEWLREEAADIRRSLQAYRHN
6.3	–	D domain SEQ ID NO: 724 (designed binder) MGSWYEFEDRLDAIQWRLWALGGSEAELAAFEKEIAAFESELQAYKGKGNPEVEFLRESAANIRQHLQAYRHN
3.2	–	D domain SEQ ID NO: 725 (designed binder) MGSWSEFEYRLFAIENRLDALGGSEAELAAFEKEIAAFESELQAYKGKGNPEVEFLREEAAMIRQLLQAYRHN
3.5	–	D domain SEQ ID NO: 730 (designed binder) MGSWVEFWHRLDAIKARLNALGGSEAELAAFEKEIAAFESELQAYKGKGNPEVEDLRWYAADFRLILQAYRHN
10.6	–	D domain SEQ ID NO: 733 (designed binder) MGSWNEFYDRLSAIYFRLQALGGSEAELAAFEKEIAAFESELQAYKGKGNPEVEHLRWYAADIRMILQAYRHN
10.6	–	D domain SEQ ID NO: 731 (designed binder) MGSWYEFYNRLSAIYARLQALGGSEAELAAFEKEIAAFESELQAYKGKGNPEVEDLRWYAADIRYMLQAYRHN
5.3	–	D domain SEQ ID NO: 732 (designed binder) MGSWYEFYDRLSAIYARLQALGGSEAELAAFEKEIAAFESELQAYKGKGNPEVEDLRWYAADIRYMLQAYRHN

ELISA_avg (CD123)	ELISA_avg (HER2)	Binder
9	–	D domain SEQ ID NO: 734 (designed binder) MGSWNEFYDRLSAIYFRLQALGGFEAELAAFEKEIAAFESELQAYKGKGNPEVEHLRWYAADIRMILQAYRHN
3.9	–	D domain SEQ ID NO: 735 (designed binder) MGSWEEFYDRLGAIFARLHALGGSEAELAAFEKEIAAFESELQAYKGKGNPEVEDLRWYAADIRMILQAYRHN
4.8	–	D domain SEQ ID NO: 736 (designed binder) MGSWVEFYDRLHAIYFRLLALGGSEAELAAFEKEIAAFESELQAYKGKGNPEVEDLRWYAADIRLVLQAYRHN
3.9	–	D domain SEQ ID NO: 737 (designed binder) MGSWKEFDNRLYAIEDRLRALGGSEAELAAFEKEIAAFESELQAYKGKGNPEVEHLRWYAADIRMILQAYRHN
15.3	–	D domain SEQ ID NO: 763 (designed binder) MGSWWEFEDRLMAIYDRLYALGGSEAELAAFEKEIAAFESELQAYKGKGNPEVEYLRAEAALIRETLQAYRHN
4.7	–	D domain SEQ ID NO: 764 (designed binder) MGSWFEFEDRLYAIEDRLYALGGSEAELAAFEKEIAAFESELQAYKGKGNPEVEYLRWGAATIRDELQAYRHN
7.1	–	D domain SEQ ID NO: 769 (designed binder) MGSWFEFVDRLEAIEMRLFALGGSEAELAAFEKEIAAFESELQAYKGKGNPEVELLRWRAAMIRYDLQAYRHN
–	7.18	HER2-binding D domain SEQ ID NO: 809 (designed binder, also called eb08) MGSWYEFRWRLHAIWLRLGALGGSEAELAAFEKEIAAFESELQAYKGKGNPEVEWLRQDAAQIRYILQAYRHN
–	8.15	HER2-binding D domain SEQ ID NO: 810 (designed binder, also called eb05) MGSWHEFLRRLLAIEMRLYALGGSEAELAAFEKEIAAFESELQAYKGKGNPEVEHLRVRAASIRQMLQAYRHN
–	8.69	HER2-binding D domain SEQ ID NO: 811 (designed binder) MGSWWGFKVNLAWIKWKLEALGGSEAELAYFELWIANFEHSLQEYKGKGNPEVEALRKEAAAIRDELQAYRHN
–	7.91	HER2-binding D domain SEQ ID NO: 812 (designed binder) MGSWVNFKTHLARIKVHLEALGGSEAELALFEHDIANFEQVLQQYKGKGNPEVEALRKEAAAIRDELQAYRHN
–	3.28	HER2-binding D domain SEQ ID NO: 813 (designed binder) MGSWLVFKDELAGIKNYLEALGGSEAELATFEQDIAWFEQWLQNYKGKGNPEVEALRKEAAAIRDELQAYRHN
–	4.95	HER2-binding D domain SEQ ID NO: 814 (designed binder, also called eb04) MGSWKTFKIELAGIKLELEALGGSEAELAGFENAIAQFESSLQYYKGKGNPEVEALRKEAAAIRDELQAYRHN
–	5.17	HER2-binding D domain SEQ ID NO: 815 (designed binder) MGSWWEFKVRLSAIQYRLYALGGSEAELAAFEKEIAAFESELQAYKGKGNPEVEALREQAALIRTILQAYRHN
–	11.9	HER2-binding D domain SEQ ID NO: 816 (designed binder) MGSWWEFHIRLHAINYRLAALGGSEAELAAFEKEIAAFESELQAYKGKGNPEVEALRELAAKIRGDLQAYRHN
–	14.4	HER2-binding D domain SEQ ID NO: 817 (designed binder) MGSWWEFQVRLRAIQYRLNALGGSEAELAAFEKEIAAFESELQAYKGKGNPEVEYLRGLAAQIRFDLQAYRHN
–	4.49	HER2-binding D domain SEQ ID NO: 818 (designed binder) MGSWWEFKIRLYAIEYRLNALGGSEAELAAFEKEIAAFESELQAYKGKGNPEVEALRAKAAQIRYNLQAYRHN
–	7.86	HER2-binding D domain SEQ ID NO: 819 (designed binder) MGSWFEFNIRLHAIEYRLKALGGSEAELAAFEKEIAAFESELQAYKGKGNPEVEELRNYAASIRKLLQAYRHN
–	7.75	HER2-binding D domain SEQ ID NO: 820 (designed binder) MGSWFEFEIRLRAIEYRLSALGGSEAELAAFEKEIAAFESELQAYKGKGNPEVEKLRELAAEIRYALQAYRHN
–	13.1	HER2-binding D domain SEQ ID NO: 821 (designed binder) MGSWFEFKIRLYAIQYRLSALGGSEAELAAFEKEIAAFESELQAYKGKGNPEVEELRNLAAEIRHSLQAYRHN
–	10.1	HER2-binding D domain SEQ ID NO: 822 (designed binder) MGSWWEFKVRLRAIEYRLSALGGSEAELAAFEKEIAAFESELQAYKGKGNPEVEELRVLAASIRIHLQAYRHN
